The target of assay [1] is FnIII9*10 (UniProt P02751). Put plainly: SPR (Biacore 2000), integrin immobilized, Fn fragment as analyte.
For assay [2], the target named is FnIII9-4G-10 (UniProt P02751). The description is as above.
The next assay addresses T1, FnIII10-14 (UniProt P02751-8 1447-1901).
T1 construct: domain: FnIII10-14; also called FnIII10 (FnIII10-14); Fn fragment including the 10th type III repeat
Put plainly: SPR, Fn fragment immobilized; SPR, FnIII10-14 immobilized; fitted KD given in the text (FIGS. 9D and 9E).

For a further assay, the target named is T2, FnIII6-9 (UniProt P02751-1 1085-1446, limits assumed).
T2 construct: domain: FnIII6-9; also called FnIII9 (FnIII6-9); Fn fragment including the 9th type III repeat
T2 sequence (P02751 other isoform, or with tags, fused parts or gaps limits assumed): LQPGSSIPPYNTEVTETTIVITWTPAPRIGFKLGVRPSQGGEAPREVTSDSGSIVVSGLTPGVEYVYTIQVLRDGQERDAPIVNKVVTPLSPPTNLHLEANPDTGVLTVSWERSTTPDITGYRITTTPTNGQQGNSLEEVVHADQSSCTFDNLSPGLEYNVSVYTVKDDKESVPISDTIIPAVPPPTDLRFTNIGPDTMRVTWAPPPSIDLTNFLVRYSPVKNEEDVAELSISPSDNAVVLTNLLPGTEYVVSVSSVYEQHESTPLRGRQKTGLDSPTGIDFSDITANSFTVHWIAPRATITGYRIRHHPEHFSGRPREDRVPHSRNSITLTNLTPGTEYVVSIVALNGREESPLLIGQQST
Put plainly: SPR, Fn fragment immobilized; SPR, FnIII6-9 immobilized (other target: fragment with the 9th repeat).

Assay [3] addresses FnIII9-4G-10 (UniProt P02751). Kind of assay: SPR, ratio of the KD values (107 nM on FnIII9*10 against 16 nM on FnIII9-4G-10).
In assay [4] the target is FnIII9-4G-10 (UniProt P02751). Put plainly: phage ELISA on maleimide plates (HRP anti-M13); absorbance (450 nm minus 650 nm) on 4G divided by absorbance on 9*10.
Assay [5] has as its target FnIII9*10 (UniProt P02751). Put plainly: SPR.
Assay [6] concerns the target FnIII9-4G-10 (UniProt P02751). Kind of assay: SPR.

Changes are numbered by the printed parent chain. Where “and” joins values, the source holds several entries; their conditions need not be identical. Identical values can stand only once.

FnIII9-4G-10, sequence (P02751 other isoform, or with tags, fused parts or gaps): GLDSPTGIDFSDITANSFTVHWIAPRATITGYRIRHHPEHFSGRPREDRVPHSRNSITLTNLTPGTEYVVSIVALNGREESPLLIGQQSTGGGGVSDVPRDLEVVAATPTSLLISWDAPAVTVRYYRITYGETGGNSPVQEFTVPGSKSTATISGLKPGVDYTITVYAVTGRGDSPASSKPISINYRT
T1 sequence (P02751 other isoform, or with tags, fused parts or gaps limits assumed): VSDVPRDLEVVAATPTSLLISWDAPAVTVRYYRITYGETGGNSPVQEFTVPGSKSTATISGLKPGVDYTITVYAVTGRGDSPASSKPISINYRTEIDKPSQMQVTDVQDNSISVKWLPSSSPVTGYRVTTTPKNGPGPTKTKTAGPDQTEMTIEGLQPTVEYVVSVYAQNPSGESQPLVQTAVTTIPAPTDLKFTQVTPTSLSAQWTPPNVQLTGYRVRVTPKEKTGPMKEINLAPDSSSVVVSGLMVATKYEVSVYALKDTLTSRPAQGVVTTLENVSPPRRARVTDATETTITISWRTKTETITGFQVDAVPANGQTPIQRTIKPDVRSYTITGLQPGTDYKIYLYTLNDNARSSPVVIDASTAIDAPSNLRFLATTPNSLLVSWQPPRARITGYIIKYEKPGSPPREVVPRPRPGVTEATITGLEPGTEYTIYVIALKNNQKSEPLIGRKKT

With “integrin αvβ3 (R&D Systems) (from UniProt P06756 31-992; P05106 27-718) (receptor)”, the Kd with FnIII9*10 [1] and in the assay with FnIII9-4G-10 [2] was 0.04 µM throughout.

B1: H5 scFv (scFv)
scFv: EVQLLESGGGLVQPGGSLRLSCAASGFTFSSYAMSWVRQAPGKGLEWVSDIYDGGGTNYADSVKGRFTTSRDNSKNTLYLQMNSLRAEDTAVYYCAKTADNFDYWGQGTLVTVSSGGGGSGGGGSGGGGSTDIQMTQSPSSLSASVGDRVTITCRASQSISSYLNWYQQKPGKAPKLLIYAASTLQSGVPSRFSGSGSGTDFTLTISSLQPEDFATYYCQQANSAPTTFGQGTKVEIKRAAA
notes: Soluble scFv from E. coli, purified by Protein-A; also called clone H5; H5 antibody
In the case of B1, the Kd came to 5.1 µM with FnIII10-14, 0.0348 µM in the assay with FnIII6-9, 0.107 µM with FnIII9*10 [5] and 0.016 µM with FnIII9-4G-10 [6]. For the same molecule, the selectivity of binding (fold, against FnIII9-10 as reference) in the assay with FnIII9-4G-10 [3] turned out to be 10 fold. For the same molecule, the 4G/9*10 Ratio with FnIII9-4G-10 [4] was 1.21 and 1.02 and 1.06.

B2: H5 Modified Clone R4B8 (scFv)
scFv: B1 scFv with D103Y
As to B2, in the assay with FnIII9-4G-10 [4], the 4G/9*10 Ratio turned out to be 1.49.

B3: H5 Modified Clone R2G3 (scFv)
scFv: B1 scFv with P41S, N73D
With B3, the 4G/9*10 Ratio with FnIII9-4G-10 [4] turned out to be 2.53.

B4: H5 Modified Clone R1H6 (scFv)
scFv: B1 scFv with L78M
B4: in the assay with FnIII9-4G-10 [4], the 4G/9*10 Ratio is 1.62.

B5: H5 Modified Clone R1F8/R1H8 (scFv)
scFv: B1 scFv with A96T
Consider B5, for which, in the assay with FnIII9-4G-10 [4], the 4G/9*10 Ratio was 1.42 and 1.33.

The values are drawn from US12410245 (UNIVERSITY OF VIRGINIA PATENT FOUNDATION, dated 2025).
